These results are taken from US12698494.

Positions count from the first letter of the chain named. Names and notes keep the numbering of the source.

T1: FRETS-VWF73 fluorogenic substrate, P04275
T1 chain: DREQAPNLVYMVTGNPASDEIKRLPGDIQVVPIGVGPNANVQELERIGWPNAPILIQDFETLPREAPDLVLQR

B1: ADAMTS13 variant NGLY7 (664EYGNLT669 to 664ENVTLT669; glycan shift from N667 to Y665) (protein)
chain: AAGGILHLELLVAVGPDVFQAHQEDTERYVLTNLNIGAELLRDPSLGAQFRVHLVKMVILTEPEGAPNITANLTSSLLSVCGWSQTINPEDDTDPGHADLVLYITRFDLELPDGNRQVRGVTQLGGACSPTWSCLITEDTGFDLGVTIAHEIGHSFGLEHDGAPGSGCGPSGHVMASDGAAPRAGLAWSPCSRRQLLSLLSAGRARCVWDPPRPQPGSAGHPPDAQPGLYYSANEQCRVAFGPKAVACTFAREHLDMCQALSCHTDPLDQSSCSRLLVPLLDGTECGVEKWCSKGRCRSLVELTPIAAVHGRWSSWGPRSPCSRSCGGGVVTRRRQCNNPRPAFGGRACVGADLQAEMCNTQACEKTQLEFMSQQCARTDGQPLRSSPGGASFYHWGAAVPHSQGDALCRHMCRAIGESFIMKRGDSFLDGTRCMPSGPREDGTLSLCVSGSCRTFGCDGRMDSQQVWDRCQVCGGDNSTCSPRKGSFTAGRAREYVTFLTVTPNLTSVYIANHRPLFTHLAVRIGGRYVVAGKMSISPNTTYPSLLEDGRVEYRVALTEDRLPRLEEIRIWGPLQEDADIQVYRRYGEENVTLTRPDITFTYFQPKPRQAWVWAAVRGPCSVSCGAGLRWVNYSCLDQARKELVETVQCQGSQQPPAWPEACVLEPCPPYWAVGDFGPCSASCGGGLRERPVRCVEAQGSLLKTLPPARCRAGAQQPAVALETCNPQPCPARWEVSEPSSCTSAGGAGLALENETCVPGADGLEAPVTEGPGSVDEKLPAPEPCVGMSCPPGWGHLDATSAGEKAPSPWGSIRTGAQAAHVWTPAAGSCSVSCGRGLMELRFLCMDSALRVPVQEELCGLASKPGSRREVCQAVPCPARWQYKLAACSVSCGRGVVRRILYCARAHGEDDGEEILLDTQCQGLPRPEPQEACSLEPCPPRWKVMSLGPCSASCGLGTARRSVACVQLDQGQDVEVDEAACAALVRPEASVPCLIADCTYRWHVGTWMECSVSCGDGIQRRRDTCLGPQAQAPVPADFCQHLPKPVTVRGCWAGPCVGQGTPSLVPHEEAAAPGRTTATPAGASLEWSQARGLLFSPAPQPRRLLPGPQENSVQSSACGRQHLEPTGTIDMRGPGQADCAVAIGRPLGEVVTLRVLESSLNCSAGDMLLLWGRLTWRKMCRKLLDMTFSSKTNTLVVRQRCGRPGGGVLLRYGSQLAPETFYRECDMQLFGPWGEIVSPSLSPATSNAGGCRLFINVAPHARIAIHALATNMGAGTEGANASYILIRDTHSLRTTAFHGQQVLYWESESSQAEMEFSEGFLKAQASLRGQYWTLQSWVPEMQDPQSWKGKEGT
B2: ADAMTS13 variant NGLY3 + NGLY8 (607GNMSI611/667LNVTA671) (protein)
chain: B1 chain with K534N, N591Y, V592G, T593L, L594N, T595V, R596T, P597A
B3: ADAMTS13 variant NGLY3 plus L591A/R636A/L637A/L668A (protein)
chain: B1 chain with L517A, K534N, R562A, L563A, N591Y, V592G, T593N, L594A
B4: ADAMTS13 variant NGLY3 + NGLY7 (607GNMSI611/664ENVTLT669) (protein)
chain: B1 chain with K534N
B5: ADAMTS13 variant R568A/Y665A (protein)
chain: B1 chain with R494A, N591A, V592G, T593N
B6: ADAMTS13 variant NGLY3 + R568A/Y665A (protein)
chain: B1 chain with R494A, K534N, N591A, V592G, T593N
B7: ADAMTS13 variant NGLY8 (667NLTRP671 to 667LNVTA671; glycan shift from N667 to L668) (protein)
chain: B1 chain with N591Y, V592G, T593L, L594N, T595V, R596T, P597A
B8: ADAMTS13 variant L591A/R636A/L637A/L668A (protein)
chain: B1 chain with L517A, R562A, L563A, N591Y, V592G, T593N, L594A

The first data set has as its target T1, FRETS-VWF73 fluorogenic substrate, ….
Turning to B1, the Activity level (% relative to wild type ADAMTS13) VWFFRETS73 (% relative to wild type ADAMTS13) came out at 125.

Regarding B2, the Activity level (% relative to wild type ADAMTS13) VWFFRETS73 (% relative to wild type ADAMTS13) was determined as 120 and the “FRETS-VWF73 activity relative to wild-type ADAMTS13 (text value, differs from Table 4)” value was “NGLY3 plus NGLY8 was 75% active when compared to wild type ADAMTS13”.

Take B3: the Activity level (% relative to wild type ADAMTS13) VWFFRETS73 (% relative to wild type ADAMTS13) was 95.

Turning to B4, the Activity level (% relative to wild type ADAMTS13) VWFFRETS73 (% relative to wild type ADAMTS13) was 135 and the “FRETS-VWF73 activity relative to wild-type ADAMTS13 (text value, differs from Table 4)” value was “NGLY3 plus NGLY7 was 125% active when compared to the wild type”.

Turning to B5, the Activity level (% relative to wild type ADAMTS13) VWFFRETS73 (% relative to wild type ADAMTS13) was determined as 120.

B6 showed an Activity level (% relative to wild type ADAMTS13) VWFFRETS73 (% relative to wild type ADAMTS13) of 120.

As to B7, the Activity level (% relative to wild type ADAMTS13) VWFFRETS73 (% relative to wild type ADAMTS13) worked out at 76 and the “FRETS-VWF73 activity relative to wild-type ADAMTS13 (text value, differs from Table 4)” value was “NGLY8 was 75% active when compared to wild-type ADAMTS13”.

B8 gave an Activity level (% relative to wild type ADAMTS13) VWFFRETS73 (% relative to wild type ADAMTS13) of 90.

A further data set addresses Von Willebrand Factor (VWF) multimers, P04275.
As to B1, the “Ability to process VWF multimers under denaturing conditions” value (from here on “Ability to process VWF multimers”) is listed as “+++++” and the “vortex assay: processing of VWF multimers under shear stress” value (“vortex assay: processing” below) is “NGLY7 was clearly capable of processing the large VWF multimers”.

For B2, the “Ability to process VWF multimers” value is reported as “++” and the “vortex assay: processing” value is “Combinations of NGLY3/NGLY8 also revealed a reduced ability to process VWF multimers”.

B3: the “Ability to process VWF multimers” value is reported as “++”; the “vortex assay: processing” value is “Combinations of NGLY3 plus L591A/R636A/L637A/L668A and NGLY3 plus R568A/Y665A efficiently processed VWF multimers”.

B4: the “Ability to process VWF multimers” value was “+++++” and the “vortex assay: processing” value is reported as “combination of NGLY3/NGLY7 retained proteolytic activity towards multimeric VWF”.

In the case of B5, the “Ability to process VWF multimers” value is “++”; the “vortex assay: processing” value is “the proteolytic activity of R568A/Y665A and the L591A/R636A/L637A/L668A variants were reduced when compared to wild type ADAMTS13”.

Regarding B6, the “Ability to process VWF multimers” value was “++”; the “vortex assay: processing” value was “Combinations of NGLY3 plus L591A/R636A/L637A/L668A and NGLY3 plus R568A/Y665A efficiently processed VWF multimers”.

Regarding B7, the “Ability to process VWF multimers” value is given as “++”; the “vortex assay: processing” value is “NGLY8 displayed a reduced ability to process VWF multimers when compared to NGLY3 and NGLY7”.

As to B8, the “Ability to process VWF multimers” value is given as “++”; the “vortex assay: processing” value is “the proteolytic activity of R568A/Y665A and the L591A/R636A/L637A/L668A variants were reduced when compared to wild type ADAMTS13”.
